B1: Listeria monocytogenes Sortase A variant C (enzyme)
chain: ANYDKDAVVGSIAVPSVDVNLLVFKGTNTANLLAGATTMRSDQVMGKGNYPLAGHHMRDESMLFGPIMKVKKGDKIYLTDLENLYEYTVTETKTIDETEVSVIDDTKDARITLITCDKPTETTKRFVAVGELEKTEKLTKELENKYFPSKMRGSHHHHHHGS
B2: N-terminally truncated Streptococcus pyogenes sortase A (protein)
chain: MRGSHHHHHHGSVLQAQMAAQQLPVIGGIAIPELGINLPIFKGLGNTELIYGAGTMKEEQVMGGENNYSLASHHIFGITGSSQMLFSPLERAQNGMSIYLTDKEKIYEYIIKDVFTVAPERVDVIDDTAGLKEVTLVTCTDIEATERIIVKGELKTEYDFDKAPADVLKAFNHSYNQVST
B3: Listeria monocytogenes Sortase A variant A (enzyme)
chain: EKDATFDFESVQLPSMTSVIKGAANYDKDAVVGSIAVPSVDVNLLVFKGTNTANLLAGATTMRSDQVMGKGNYPLAGHHMRDESMLFGPIMKVKKGDKIYLTDLENLYEYTVTETKTIDETEVSVIDDTKDARITLITCDKPTETTKRFVAVGELEKTEKLTKELENKYFPSKMRGSHHHHHHGS
B4: Listeria monocytogenes Sortase A variant B (enzyme)
chain: SVIKGAANYDKDAVVGSIAVPSVDVNLLVFKGTNTANLLAGATTMRSDQVMGKGNYPLAGHHMRDESMLFGPIMKVKKGDKIYLTDLENLYEYTVTETKTIDETEVSVIDDTKDARITLITCDKPTETTKRFVAVGELEKTEKLTKELENKYFPSKMRGSHHHHHHGS
B5: Listeria monocytogenes Sortase A variant E (enzyme)
chain: GSIAVPSVDVNLLVFKGTNTANLLAGATTMRSDQVMGKGNYPLAGHHMRDESMLFGPIMKVKKGDKIYLTDLENLYEYTVTETKTIDETEVSVIDDTKDARITLITCDKPTETTKRFVAVGELEKTEKLTKELENKYFPSKMRGSHHHHHHGS
B6: Listeria monocytogenes Sortase A variant D (enzyme)
chain: ANYDKDAVVGSIAVPSVDVNLLVFKGTNTANLLAGATTMRSDQVMGKGNYPLAGHHMRDESMLFGPIMKVKKGDKIYLTDLENLYEYTVTETKTIDETEVSVIDDTKDARITLITCDKPTETTKRFVAVGELEKTEKMRGSHHHHHHGS

biological target: glucose dehydrogenase harboring a LPKTA motive; test: not given

| Binder | activity with different LPKTA concentrations |
| --- | --- |
| B1 | The graphs show the higher activity of Listeria monocytogenes Sortase A variant C |
| B2 | a substrate inhibition effect for St.py. SrtA at concentrations higher than 300 µM |

biological target: glucose dehydrogenase containing the sortase-motif LPXTG; test: cell-based or functional assay

| Binder | maximum dE/min [dE/min] |
| --- | --- |
| B1 | 0.113 |
| B3 | 0.037 |
| B4 | 0.026 |
| B5 | 0.019 |
| B6 | 0.044 |
